Laboratory results reported in paper PMC8684735.

Target: chicken F-actin (chicken) (UniProt P68139)
Assay: co-sedimentation

Row | Kd [nM] | Substance
1 | 2000 | Drosophila indirect flight muscle myosin isoform (IFI) subfragment-1 (S1), S532P mutant (domain or fragment)
2 | 1260 | Drosophila indirect flight muscle myosin isoform (IFI) subfragment-1 (S1), wild-type control (domain or fragment)
